Test results: patent US20130177556
Where two headings read alike, the source gives them in different places.

Legend:
[1] = target: EGFR on A549 cells (Homo sapiens) (UniProt P00533); assay: cell_activity; conditions: 2'-F pyrimidines (all C and U); inhibition of EGF-dependent EGFR phosphorylation in A549, 200 nM aptamer
[2] = target: EGFR on A549 cells (Homo sapiens) (UniProt P00533)
[3] = target: EGFR extracellular domain (EC-EGFR) (Homo sapiens) (UniProt P00533); assay: filter; conditions: 2'-F pyrimidines (all C and U); PBS, 0.01% BSA, 37 C, 15 min; scrambled background subtracted

| Sequence | activity [1] [% inhibition] | Kd ([2]; 2'-F pyrimidines (all C and U), binding to whole A549 cells, radiolabelled aptamer) [nM] | Kd [3] [nM] | Kd ([2]; 2'-F pyrimidines, Kd stated for full-length CL4, whole A549 cells implied) [nM] |
| --- | --- | --- | --- | --- |
| GCCUUAGUAACGUGCUUUGAUGUCGAUUCGACAGGAGGC [CL4 42-81] | 60 | 38 | 10 | – |
| GGGAGACAAGAAUAAACGCUCAACGACACGUUGCCAGCCGGAGCCUUAGUAACGUGCUUUGAUGUCGAUUCGACAGGAGGCUCACAACAGGC [CL4] | – | – | – | 46 |
